Reference: patent US20250042957A1

B1: 2-in-1 DARPin 23 (SEQ ID NO: 92) (designed binder)
chain: DLGKKLLQAARAGQLDEVRELLKAGADVNAKDSQGRTPLHLAAFAGHLEIVEVLLKAGADVNAKDHAGWTPLHLAAYAGHLEIVEVLVKAGADVNAKDTEGKTPLHIAAWFGHLEIVEVLLKAGADVNAKDKSGQTPLHLAAWAGHLEIVEVLLKAGADVNAKNSRGWTPLHTAAQTGHLEIFEVLLKAGADVNAKNDKRVTPLHLAAALGHLEIVEVLLKAGADVNARDSWGTTPADLAAKYGHQDIAEVLQKAA
B2: 2-in-1 DARPin 24 (SEQ ID NO: 93) (designed binder)
chain: DLGKKLLQAARAGQLDEVRELLKAGADVNAKDSQGRTPLHLAAFAGHLEIVEVLLKAGADVNAKDHAGWTPLHLAAYAGHLEIVEVLVKAGADVNAKDTEGKTPLHIAAWFGHLEIVEVLLKAGADVNAKDKSGKTPLHLAARAGHLEIVEVLLKAGADVNAKDNSGQTPLHEAAWAGHLEIVEVLLKAGADVNAKNSRGWTPLHTAAQTGHLEIFEVLLKAGADVNAKNDKRVTPLHLAAALGHLEIVEVLLKAGADVNARDSWGTTPADLAAKYGHQDIAEVLQKAA
B3: 2-in-1 DARPin 25 (SEQ ID NO: 94) (designed binder)
chain: DLGKKLLQAARAGQLDEVRELLKAGADVNAKDSQGRTPLHLAAFAGHLEIVEVLLKAGADVNAKDHAGWTPLHLAAYAGHLEIVEVLVKAGADVNAKDTEGKTPLHIAAWFGHLEIVEVLLKAGADVNAKDKSGKTPLHLAARAGHLEIVEVLLKAGADVNAKDNSGQTPLHLAAWAGHLEIVEVLLKAGADVNAKNSRGWTPLHTAAQTGHLEIFEVLLKAGADVNAKNDKRVTPLHLAAALGHLEIVEVLLKAGADVNARDSWGTTPADLAAKYGHQDIAEVLQKAA
B4: Parent DARPin no 4 (SEQ ID NO: 88) (designed binder)
chain: DLGKKLLQAARAGQLDEVRELLKAGADVNAKDSQGRTPLHLAAFAGHLEIVEVLLKAGADVNAKDHAGWTPLHLAAYAGHLEIVEVLVKAGADVNAKDTEGKTPLHIAAWFGHLEIVEVLLKAGADVNAQDKSGKTPADLTARAGHQDIAEVLQKAA

Experiments:
TargetA [1] = assay: ELISA on TargetA, DARPin titrated
TargetA [2] = assay: SPR, bio-TargetA coated on NAD chip, DARPin 333.33-4.11 nM

Row | Binder | EC50 (read off the curve) (TargetA [1]) [nM] | Kd (TargetA [2]) [nM]
1 | B1 | 1 | 0.024
2 | B2 | 0.8 | 0.119
3 | B3 | 0.7 | 0.018
4 | B4 | – | 0.16
